Data taken from publication PMC5764468 (PLoS Biology, 2017).

Biological target: T1, Human calmodulin (CaM) (human, UniProt P0DP23 1-149)
T1 construct: also called full-length CaM
Assay: SEC-SAXS
Settings: both partners purified

B1: CaM-binding peptide (P_(MLCK)) from the smooth muscle myosin light-chain kinase (peptide)
peptide: Ac-RRKWQKTGHAVRAIGRLSS-NH2
notes: also called myosin light-chain kinase peptide; MLCK peptide
In the case of B1, the “stoichiometry N” value is reported as 1 P_(MLCK) per CaM.
